# Results from PMC4558565.
# “And” between values parts separate entries of the source, which are not always exact repeats. Equal entries are not always repeated.
# B1: bZIP63 (protoplast two-hybrid fusion) (natural protein)
# chain: MEKVFSDEEISGNHHWSVNGMTSLNRSASEWAFNRFIQESSAAADDGESTTACGVSVSSPPNVPVDSEEYRAFLKSKLNLACAAVAMKRGTFIKPQDTSGRSDNGGANESEQASLASSKATPMMSSAITSGSELSGDEEEADGETNMNPTNVKRVKRMLSNRESARRSRRRKQAHLSELETQVSQLRVENSKLMKGLTDVTQTFNDASVENRVLKANIETLRAKVKMAEETVKRLTGFNPMFHNMPQIVSTVSLPSETSNSPDTTSSQVTTPEIISSGNKGKALIGCKMNRTASMRRVESLEHLQKRIRSVGDQ
# B2: bZIP11 (protoplast two-hybrid fusion) (natural protein)
# chain: MESSSSGTTSSTIQTSSGSEESLMEQRKRKRMLSNRESARRSRMKKQKLLDDLTAQVNHLKKENTEIVTSVSITTQHYLTVEAENSVLRAQLDELNHRLQSLNDIIEFLDSSNNNNNNNMGMCSNPLVGLECDDFFVNQMNMSYIMNQPLMASSDALMY
# Key:
# [1] = target: bZIP1-VENUSN (m29) signal relative to bZIP11-CFPN (m30) signal; assay: multi-color BiFC in N. tabacum leaves, confocal microscopy; details: co-transformed with mCherry-tagged AKIN10; 115-118 nuclei; value is the median of the box plot; parent: est. 2.4; read off a plot
# [2] = target: bZIP63 in which S29 or all three serines were mutated to alanine; assay: two-hybrid; protoplast two-hybrid (P2H) in Arabidopsis leaf protoplasts; GAL4-AD and GAL4-BD fusions, GAL-UAS4::GUS reporter normalised to 35S::NAN; without and with co-transformation of AKIN10; 16 hr
Molecule,other: VENUS/CFP (norm.) [1],% of the signal with wt bZIP63 [2]
bZIP63 (split-CFP BiFC fusion) (from UniProt B9DGI8) S29A; S294A; S300A,1,–
B1,–,30% and 40%
B2,–,30% and 40%
